This note sets out measurements from patent US20180364250.

For the series, the target named is ubiquitin-D77.

B1: YUH1 (protein)
chain: MSGENRAVVPIESNPEVFTNFAHKLGLKNEWAYFDIYSLTEPELLAFLPRPVKAIVLLFPINEDRKSSTSQQITSSYDVIWFKQSVKNACGLYAILHSLSNNQSLLEPGSDLDNFLKSQSDTSSSKNRFDDVTTDQFVLNVIKENVQTFSTGQSEAPEATADTNLHYITYVEENGGIFELDGRNLSGPLYLGKSDPTATDLIEQELVRVRVASYMENANEEDVLNFAMLGLGPNWE
In the case of B1, the “fluorescence intensity over time (real-time deubiquitinase assay with 500 nM ubiquitin-D77, 10 nM fluorescein-tagged ubiquitin, 10 nM tIVR)” value was “Activity of YUH1 released ubiquitin proteins from conjugation to aspartic acid (i.e., the D77 residue), and thus increased the concentration of free ubiquitin protein”.
